± gives the standard error. For part of these data: Fewer inactive variants are shown than the library holds.
B1: glmS ribozyme (parent)
chain: AUAAAAGCGCCAGAACUACAGAAAUGUAGUUGACGAGGAGGAGGUUUAUCGAAUUUUCGGCGGAUGCCUCCAAA

What was measured:
Conditions in all cases: with glucosamine-6-phosphate
[1] = variants of: B1; experiment: kcat; higher = faster cleavage; RNA array
How it was run: (§1)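 Glucosamine-6-phosphate, from 40 μM to 10 mM in HEPES/KCl/Mg(OAc)2 buffer, was flowed over sequenced MiSeq chips carrying barcoded ribozyme variants transcribed in situ by E. coli RNA polymerase. A hybridised Cy3 probe tracked the variants at 37 °C as tiles were imaged over ~14 h. kobs, kcat and KM were obtained by fitting normalised per-tile medians to exponential decays and then applying weighted Michaelis–Menten fits across concentrations.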

[2] = variants of: B1; experiment: KM; higher = weaker cofactor use; RNA array
How it was run: as §1

[3] = variants of: B1; experiment: self-cleavage kobs at 640 uM GlcN6P; higher = faster cleavage; RNA array
How it was run: as §1

[4] = variants of: B1; experiment: self-cleavage kobs at 2500 uM GlcN6P; higher = faster cleavage; RNA array
How it was run: as §1

[5] = variants of: B1; experiment: self-cleavage kobs at 10000 uM GlcN6P; higher = faster cleavage; RNA array
How it was run: as §1

[6] = variants of: B1; experiment: self-cleavage kobs at 40 uM GlcN6P; higher = faster cleavage; RNA array
How it was run: as §1

[7] = variants of: B1; experiment: self-cleavage kobs at 160 uM GlcN6P; higher = faster cleavage; RNA array
How it was run: as §1

| Variant | kcat [1] [s⁻¹] | KM [2] [µM] | self-cleavage kobs at 640 uM GlcN6P [3] [s⁻¹] | self-cleavage kobs at 2500 uM GlcN6P [4] [s⁻¹] | self-cleavage kobs at 10000 uM GlcN6P [5] [s⁻¹] | self-cleavage kobs at 40 uM GlcN6P [6] [s⁻¹] | self-cleavage kobs at 160 uM GlcN6P [7] [s⁻¹] |
| --- | --- | --- | --- | --- | --- | --- | --- |
| G40C A52G | 0.00018 ± 3.1e-05 | 2990 ± 1200 | 2.38e-05 ± 8.1e-06 | 0.000102 ± 1.5e-05 | 0.000133 ± 1.5e-05 |  |  |
| A6G G37U | < 1e-05 |  |  |  | < 1e-05 | < 1e-05 | < 1e-05 |
| A15C C67U | 0.00143 ± 0.00033 | 881 ± 330 | 0.00045 ± 6.9e-05 | 0.00177 ± 0.00038 | 0.00139 ± 0.00015 | 7.54e-05 ± 8.7e-06 | 0.000198 ± 6.2e-05 |
| U30C U46C C50U U69C | 1.66e-05 ± 5e-06 |  |  |  |  |  |  |
| C16G C67U | 0.000669 ± 7.7e-05 | 736 ± 160 | 0.000318 ± 3.4e-05 | 0.000504 ± 6.2e-05 | 0.000642 ± 8.6e-05 | 4.87e-05 ± 9.4e-06 | 0.000106 ± 1.5e-05 |
| A36U A39C | < 1e-05 |  |  | < 1e-05 | < 1e-05 | < 1e-05 | < 1e-05 |
| C50G G60C U69A | 8.12e-05 ± 2.6e-05 |  | 0.00011 ± 2.1e-05 | 0.000146 ± 3.1e-05 | 4.94e-05 ± 1.4e-05 |  | 0.00016 ± 4.5e-05 |
| U46A G66U | 0.0037 ± 0.001 | 5940 ± 2100 | 0.000412 ± 7.3e-05 | 0.00111 ± 0.00027 | 0.00229 ± 0.00041 | 5.04e-05 ± 2.3e-05 | 8.12e-05 ± 1.9e-05 |
| A14G G29U U47G C70G | 8.6e-05 ± 1.6e-05 |  | 0.000119 ± 3.1e-05 | 6.72e-05 ± 1.5e-05 | 0.000118 ± 2.8e-05 |  |  |
| A52C U69A | 1.76e-05 ± 5.9e-06 |  |  |  |  |  |  |
| A14U U54G | 0.00917 ± 0.0032 |  | 0.00128 ± 0.00026 | 0.00387 ± 0.00047 | 0.00759 ± 0.00076 | 0.000217 ± 2.4e-05 | 0.000382 ± 6.2e-05 |
| A12C A53G | 0.0568 ± 0.027 |  | 0.00569 ± 0.00072 | 0.0149 ± 0.0025 | 0.0471 ± 0.0076 | 0.000585 ± 7.2e-05 | 0.00162 ± 0.00033 |
| A39U A48G | 0.000105 ± 2.3e-05 |  |  | 6.61e-05 ± 1.5e-05 | 8.13e-05 ± 1.5e-05 | < 1e-05 | < 1e-05 |
| A6G U30A | 5.86e-05 ± 1.4e-05 |  |  | 3.73e-05 ± 1e-05 | 4.4e-05 ± 1.9e-05 |  |  |
| C10A U30C A53G C67A | 1.94e-05 ± 4e-06 |  |  |  |  |  |  |
| U56A U57C | 0.00014 ± 3.4e-06 | 2030 ± 160 |  | 7.84e-05 ± 1.5e-05 | 0.000115 ± 1.5e-05 | < 1e-05 |  |
